Data published in paper PMC9482650, “Quantitative fragmentomics allow affinity mapping of interactomes” (Nature Communications, 2022).

Columns and labels:
Assay in all cases: holdup assay
Parameters in all cases: key: below the threshold = too weak to quantify, mostly under pKd 3.1 to 4
Details in all cases: plain residues with an end cap or a label only (N-terminal biotin on a linker: ado-ado)
[1] = target: LIMK2, P53671
[2] = target: T1, MPP6, Q9NZW5
T1 sequence (Q9NZW5 125-219, limits assumed, looked up): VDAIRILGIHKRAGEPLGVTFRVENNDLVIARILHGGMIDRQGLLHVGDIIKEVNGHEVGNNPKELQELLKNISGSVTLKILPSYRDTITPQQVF

[3] = target: LDB3, O75112
[4] = target: IL16_3, Q14005
[5] = target: SCRIB_3, Q14160
[6] = target: DLG4_2, P78352
[7] = target: T2, DLG3_3, Q92796
T2 sequence (Q92796 374-475, limits assumed, looked up): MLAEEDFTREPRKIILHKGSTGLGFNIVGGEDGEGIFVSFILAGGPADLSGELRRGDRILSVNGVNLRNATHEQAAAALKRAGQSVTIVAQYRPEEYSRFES

[8] = target: MAGI2_6, Q86UL8
[9] = target: T3, APBA3_1, O96018
T3 sequence (O96018 389-490, limits assumed, looked up): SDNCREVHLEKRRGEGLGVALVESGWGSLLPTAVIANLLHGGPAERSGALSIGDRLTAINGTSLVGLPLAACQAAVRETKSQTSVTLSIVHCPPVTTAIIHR

[10] = target: GRIP2_5, Q9C0E4
[11] = target: T4, MPDZ_12, O75970
T4 sequence (O75970 1857-1958, limits assumed, looked up): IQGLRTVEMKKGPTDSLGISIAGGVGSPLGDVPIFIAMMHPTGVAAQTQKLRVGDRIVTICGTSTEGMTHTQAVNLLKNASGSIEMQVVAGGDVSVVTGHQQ

[12] = target: FRMPD3, Q5JV73
[13] = target: Inadl_8, Q8NI35
[14] = target: DLG4_1, P78352
[15] = target: PTPN3, P26045
[16] = target: T5, DFNB31_1, Q9P202
T5 sequence (Q9P202 135-233, limits assumed, looked up): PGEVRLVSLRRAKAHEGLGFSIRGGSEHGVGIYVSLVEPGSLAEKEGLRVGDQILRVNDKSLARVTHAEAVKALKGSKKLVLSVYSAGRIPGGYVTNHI

[17] = target: T6, LNX2_2, Q8N448
T6 sequence (Q8N448 334-432, limits assumed, looked up): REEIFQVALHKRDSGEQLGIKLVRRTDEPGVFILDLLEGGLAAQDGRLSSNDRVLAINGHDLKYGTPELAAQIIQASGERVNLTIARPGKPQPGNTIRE

[18] = target: T7, SHANK1, Q9Y566
T7 sequence (Q9Y566 658-767, limits assumed, looked up): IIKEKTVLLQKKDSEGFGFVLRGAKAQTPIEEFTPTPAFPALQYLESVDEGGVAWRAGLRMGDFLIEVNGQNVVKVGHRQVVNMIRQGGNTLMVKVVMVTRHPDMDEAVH

[19] = target: MAGI2_4, Q86UL8
[20] = target: T8, PDZD7_3, Q9H5P4
T8 sequence (Q9H5P4 857-944, limits assumed, looked up): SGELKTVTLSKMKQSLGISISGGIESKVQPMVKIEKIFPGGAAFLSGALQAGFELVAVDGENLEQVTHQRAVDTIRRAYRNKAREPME

[21] = target: TJP1_3, Q07157
[22] = target: MAGI3_2, Q5TCQ9
[23] = target: T9, MPP2, Q14168
T9 sequence (Q14168 180-250, limits assumed, looked up): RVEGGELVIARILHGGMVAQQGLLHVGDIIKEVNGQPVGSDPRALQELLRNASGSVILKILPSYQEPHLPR

[24] = target: GRIP2_4, Q9C0E4
[25] = target: T10, DFNB31_3, Q9P202
T10 sequence (Q9P202 811-907, limits assumed, looked up): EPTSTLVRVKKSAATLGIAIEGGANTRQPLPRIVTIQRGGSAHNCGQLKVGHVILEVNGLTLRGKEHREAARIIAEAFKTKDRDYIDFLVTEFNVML

[26] = target: Inadl_1, Q8NI35
[27] = target: CASK, O14936
[28] = target: GRIP2_3, Q9C0E4
[29] = target: GRIP2_6, Q9C0E4

Measured: pKd

DLG4_2, P78352, sequence (P78352 155-259): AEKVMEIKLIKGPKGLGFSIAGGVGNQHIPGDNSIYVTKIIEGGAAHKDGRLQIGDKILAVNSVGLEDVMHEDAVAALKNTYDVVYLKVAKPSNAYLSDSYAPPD
FRMPD3, Q5JV73, sequence (Q5JV73 12-100): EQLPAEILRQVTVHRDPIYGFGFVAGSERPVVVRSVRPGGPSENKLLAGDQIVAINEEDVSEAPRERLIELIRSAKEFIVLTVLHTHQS
MAGI2_4, Q86UL8, sequence (Q86UL8 772-865): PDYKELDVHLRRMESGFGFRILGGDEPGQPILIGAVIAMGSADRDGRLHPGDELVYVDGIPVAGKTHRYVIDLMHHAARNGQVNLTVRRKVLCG
GRIP2_4, Q9C0E4, sequence (Q9C0E4 446-548): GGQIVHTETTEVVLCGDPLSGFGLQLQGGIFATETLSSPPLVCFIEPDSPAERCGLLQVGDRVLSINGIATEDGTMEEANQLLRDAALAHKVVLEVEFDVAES
GRIP2_6, Q9C0E4, sequence (Q9C0E4 648-740): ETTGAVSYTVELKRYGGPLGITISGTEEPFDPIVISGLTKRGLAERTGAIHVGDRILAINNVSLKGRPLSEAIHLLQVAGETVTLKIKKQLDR
PTPN3, P26045, sequence (P26045 505-587): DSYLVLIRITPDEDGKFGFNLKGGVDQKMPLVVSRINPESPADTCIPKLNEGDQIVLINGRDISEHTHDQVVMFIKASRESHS
GRIP2_5, Q9C0E4, sequence (Q9C0E4 544-642): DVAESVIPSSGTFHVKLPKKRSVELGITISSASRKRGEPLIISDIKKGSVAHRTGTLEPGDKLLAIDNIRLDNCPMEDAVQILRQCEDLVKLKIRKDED
IL16_3, Q14005, sequence (Q14005 1107-1207): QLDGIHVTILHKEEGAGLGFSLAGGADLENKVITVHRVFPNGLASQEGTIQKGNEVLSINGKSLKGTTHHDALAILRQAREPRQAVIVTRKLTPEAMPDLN
LIMK2, P53671, sequence (P53671 143-248): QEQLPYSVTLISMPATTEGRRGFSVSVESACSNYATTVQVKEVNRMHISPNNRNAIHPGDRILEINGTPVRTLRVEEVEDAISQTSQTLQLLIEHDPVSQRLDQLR
TJP1_3, Q07157, sequence (Q07157 416-512): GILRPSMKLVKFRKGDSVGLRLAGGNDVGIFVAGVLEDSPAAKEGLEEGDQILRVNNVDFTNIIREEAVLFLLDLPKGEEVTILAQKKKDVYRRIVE
Inadl_8, Q8NI35, sequence (Q8NI35 1425-1530): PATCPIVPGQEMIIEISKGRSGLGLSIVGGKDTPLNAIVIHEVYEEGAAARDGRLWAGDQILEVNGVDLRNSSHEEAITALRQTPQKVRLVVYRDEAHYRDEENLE
DLG4_1, P78352, sequence (P78352 62-152): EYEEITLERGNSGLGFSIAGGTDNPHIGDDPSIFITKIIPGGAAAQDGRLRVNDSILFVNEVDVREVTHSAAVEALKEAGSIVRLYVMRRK
GRIP2_3, Q9C0E4, sequence (Q9C0E4 238-339): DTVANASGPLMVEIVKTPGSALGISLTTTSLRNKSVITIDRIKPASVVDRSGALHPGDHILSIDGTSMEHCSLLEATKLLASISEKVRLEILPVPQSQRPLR
Inadl_1, Q8NI35, sequence (Q8NI35 113-229): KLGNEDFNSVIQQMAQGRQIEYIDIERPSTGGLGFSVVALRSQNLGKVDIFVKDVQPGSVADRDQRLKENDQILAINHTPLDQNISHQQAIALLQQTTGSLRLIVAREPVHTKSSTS
LDB3, O75112, sequence (O75112 1-94): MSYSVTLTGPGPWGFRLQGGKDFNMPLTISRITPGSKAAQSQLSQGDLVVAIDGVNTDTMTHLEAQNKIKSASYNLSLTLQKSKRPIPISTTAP
MAGI2_6, Q86UL8, sequence (Q86UL8 1141-1229): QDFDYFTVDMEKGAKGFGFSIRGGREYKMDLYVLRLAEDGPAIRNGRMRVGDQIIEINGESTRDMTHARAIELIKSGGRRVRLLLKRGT
CASK, O14936, sequence (O14936 487-570): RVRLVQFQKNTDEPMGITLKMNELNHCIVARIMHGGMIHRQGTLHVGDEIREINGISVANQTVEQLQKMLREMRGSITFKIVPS
SCRIB_3, Q14160, sequence (Q14160 999-1103): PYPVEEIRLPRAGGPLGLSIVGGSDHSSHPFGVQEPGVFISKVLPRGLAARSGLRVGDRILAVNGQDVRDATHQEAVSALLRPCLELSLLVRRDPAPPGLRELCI
MAGI3_2, Q5TCQ9, sequence (Q5TCQ9 398-503): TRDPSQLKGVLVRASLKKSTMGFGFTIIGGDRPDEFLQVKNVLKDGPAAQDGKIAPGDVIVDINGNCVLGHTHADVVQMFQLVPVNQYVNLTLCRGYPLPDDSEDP

STYCDYTIEI [FAM71C, Q8NEG0]
3.67: [2] | [27]
4.16: [15]
3.86: [25]
3.56: [26]
4.96: [17]
3.55: [20]
4.14: [29]
4.06: [5]
below the threshold: all other assays above

KIEDVEITLV [FCHSD2, O94868]
3.89: [14]
4.05: [22]
4.07: [19]
4.24: [8]
3.5: [15]
4.1: [18]
5.6: [17]
4.79: [25]
3.48: [5] | [16]
3.74: [2]
5.46: [20]
3.99: [13]
4.2: [6]
below the threshold: all other assays above

MQILSKPEFI [NPSR1, Q6W5P4]
3.59: [5]
3.56: [11]
3.94: [15]
below the threshold: all other assays above
